{
  "source": "patent US20070167369A1",
  "about": "“Novel use of isolated polypeptide comprising four FAS-1 domains, EM1 domain and RGD motif” (KYUNGPOOK NATIONAL UNIVERSITY INDUSTRY-ACADEMIC COOPERATION …, priority 2004, published 2007)",
  "molecules": {"B1": {"name": "fas-1 domain: recombinant protein containing the fourth fas-1 domain of human βig-h3 (SEQ ID NO: 64) (protein, listed as Homo sapiens)", "chain": "MGTVMDVLKGDNRFSMLVAAIQSAGLTETLNREGVYTVFAPTNEAFRALPPRERSRLLGDAKELANILKYHIGDEILVSGGIGALVRLKSLQGDKLEVSLKNNVVSVNKEPVAEPDIMATNGVVHVITNVL"}},
  "key": {"[1]": {"tested_on": "blood vessels in Matrigel plugs", "experiment": "In vivo Matrigel plug assay (Example 9-2)", "parameters": "species or system C57/BL6 mice", "experimental": "An in vivo Matrigel plug assay was performed according to the method described by Maeshima, Y. et al., J. Biol. Chem., 275:23745-23750, 2000. 5-6 week old male C57/BL6 mice purchased from Hyochang scientific company, Korea, were used.\nFirst, Matrigel (BD Biosciences, MA) was mixed with 20 units/ml heparin, 150 ng/ml bFGF (basic fibroblast growth factor, R&D system, International, Inc), and 5 μM or 10 μM of the fas-1 domain (pig-h3 D-IV). As a control was treated with PBS. The Matrigel mixture was injected subcutaneously to the C57/BL6 mice. After 7 days, the mice were sacrificed, and the Matrigel plugs were removed and fixed in 4% paraformaldehyde. The Matrigel plugs were embedded in paraffin, sectioned and stained with H&E. Their sections were examined by light microscope, the number of blood vessels from 4-6 HPF (high power fields; x200) was counted and averaged. Each group consisted of 3 or 4 Matrigel plugs."}, "[2]": {"tested_on": "Melanoma cells B16F10 tumor", "experiment": "B16F10 subcutaneous tumor model, tumor growth and CD31 blood vessel count (Example 10-3)", "format": "in vivo, BALB/c nude mouse", "settings": "9 mg/kg or 18 mg/kg into the abdominal cavity one time a day", "experimental": "Melanoma cells B16F10 were suspended in medium at a density of 1×10^7 cells/ml. 0.1 ml of the cell suspension was injected subcutaneously to 5-6 week old BALB/c nude mouse (purchased from Jung-Ang Animal Inc. Ltd., Korea) to make a subcutaneous tumor model. When the volume of the tumor reached about 25 mm^3, mice having similar tumor size were selected and divided into three groups. The fas-1 domain (βig-h3 D-IV) prepared in Example 1 above was injected into the abdominal cavity of the mice of each group at the amount of 9 mg/kg or 18 mg/kg one time a day. A control was injected with saline solution. Thereafter, the body weight and tumor size of the mice were checked at intervals of three days. The diameter of the tumor was measured with slide calipers, and the volume of the tumor was calculated according to the equation 1 above.\nMeanwhile, the tumor was removed after a given time, photographed with a stereoscopic microscope, weighed, and then fixed in 4% paraformaldehyde. The fixed tumor was immersed in 30%, 20% and 10% sucrose solutions one after another for one hour each solution, frozen rapidly with liquid nitrogen spray, and then left to stand at […] for two hours. The frozen tumor was sliced with a tissue microtome (Leica, Germany) to make tissue slides which were then dried at room temperature. Thereafter, the tissue slides were immuno-stained with CD31 (Pharmingen, San Diego, Calif.), an antibody that binds specifically to vascular endothelial cells. The immuno-stained slides were observed under a microscope, and the number of blood vessels from 3-5 LPF (low power fields; x100) was counted and averaged. Each group consisted of 5 or 6 members."}, "[3]": {"tested_on": "FAK-Raf-ERK/AKT signal transduction pathway", "experiment": "Western blot of phosphorylation of FAK-Raf-ERK/AKT pathway enzymes in HUVECs (Example 12)", "format": "cell-based, human", "settings": "20 μM", "experimental": "To examine the inhibitory mechanism of the fas-1 domain against endothelial cell proliferation and migration, the amount and activity of enzymes related to a FAK-Raf-ERK/AKT signal transduction pathway that is a typical signal transduction pathway in cells was determined by Western blot analysis on HUVECs treated with the fas-1 domain. Since the signal transduction-related proteins undergo phosphorylation during their activation process, the amount of phosphorylated proteins can be measured to predict their activity.\nHUVECs were spread onto a 100-mm plate with 10% FBS-containing M199 medium, and incubated in an incubator at 37° C. for 12 hours. Following this, the culture medium was replaced with fresh medium containing 0.1% FBS and then further incubated for 24 hours. After removing the medium, the cells were washed one time with PBS buffer. The cells were detached from the plate by treatment with Trypsin-EDTA solution. The cells were suspended in 10% FBS-containing medium. Fas-1 protein was added to the cell suspension at final concentration of 20 μM. A control was added with PBS buffer. Thereafter, 3 ml of the cell mixture was taken and spread onto a plate coated with collagen. After 30 minutes, 60 minutes and 90 minutes, respectively, the medium was removed from the plate, and the cells were washed one time with PBS buffer. The cells were added with 200 μl of cell lysis buffer and left to stand on ice. The cell lysate was centrifuged at 12,000 rpm for 10 minutes at 4° C., and the supernatant containing a soluble protein was collected. Next, to quantify the concentration of the protein, a Bradford assay (BioRad, Hercules, Calif.) was performed using BSA as the standard protein. 30 μg of each of the sample proteins was electrophoresed on 10% SDS-polyacrylamide gel. The protein on the gel was transferred onto a nitrocellulose membrane, using electrophoresis. The protein transferred to the membrane was reacted with 5% skimmed milk for one hour to block nonspecific protein binding. Following this, it was reacted with the following various antibodies to signal transduction proteins: FAK (BD Science, Franklin Lakes, N.J., USA), pFAK (phosphorylated FAK; Santa Cruz Co., CA, USA), ERK (Sanca Cruz Co., CA, USA), pERK (phosphorylated ERK; Santa Cruz Co., CA, USA), AKT (Cell Signaling Technology Co., Beverly, Mass.), pAKT (phosphorylated AKT; Cell Signaling Technology Co., Beverly, Mass.), Raf1 (Santa Cruz Co., CA, USA) and pRaf1 (phosphorylated Raf1, Santa Cruz Co., CA, USA). The antibodies had been diluted in TBST (50 mM Tris-HCl, pH 7.6, 150 mM NaCl, 0.1% Tween 20) before use. The binding reaction with the antibodies was performed for at least 12 hours in a refrigeration condition. After completion of the reaction, the membrane was washed three times with TBST solution. Thereafter, the membrane was added with HRP-conjugated secondary antibodies (HRP-conjugated-anti-mouse IgG and HRP-conjugated-anti-rabbit IgG; Santa Cruz Co., CA, USA), and a binding reaction with the secondary antibodies was performed at room temperature for one hour. Next, the membrane was washed three times, and then added with 1 ml of ECL as chemiluminescent solution, so that sites where antigen-antibody reaction occurred were visualized by fluorescence. The membrane was exposed to an X-ray film."}, "[4]": {"tested_on": "tumors derived from fas-1/B16F10 cells", "experiment": "Growth of tumors derived from fas-1-overexpressing melanoma cells (Example 10-2)", "format": "in vivo, mice", "settings": "fas-1 domain overexpressed in the implanted B16F10 cells", "experimental": "Each of the fas-1-overexpressing melanoma cells (fas-1/B16F10) and the control cells (pLNCX/B16F10) was suspended in medium at a density of 1×10^7 cells/ml. 0.1 ml of each of the cell suspensions was injected subcutaneously to 5-6 week old mice (Hyochang scientific company, Korea) to make a tumor model. Since the diameter of the tumor reached about 3 mm, the body weight and tumor size of the mice were checked at intervals of three days. The longest diameter and the shortest diameter of the tumor were measured with slide calipers, and the measured values were substituted in the following equation (1) to calculate the volume of the tumor. Volume of tumor=a×b^2/2 [Equation 1]\nWherein, ‘a’ is the shortest diameter of the tumor, and ‘b’ is the longest diameter of the tumor."}, "[5]": {"settings": "collagen-coated plate, 30, 60, 90 minutes"}},
  "data": [
    {"molecule": "B1", "values": [
      {"measurement": "in vivo angiogenesis inhibitory effect compared with YH motif-containing peptide fragment of 18 amino acids", "setting": "[1]; 5 μM fas-1 domain vs 500 μM YH peptide", "value": "significantly higher"},
      {"measurement": "number of blood vessels in Matrigel plug", "setting": "[1]; 5 μM in Matrigel, subcutaneous, 7 days", "value": "significantly smaller than that in the control"},
      {"measurement": "angiogenesis in Matrigel plug", "setting": "[1]; 10 μM in Matrigel, subcutaneous, 7 days", "value": "perfectly inhibited"},
      {"measurement": "number of blood vessels stained with CD31 antibody in tumor", "setting": "[2]", "value": "significantly smaller than that of the control"},
      {"measurement": "tumor growth rate with time", "setting": "[2]", "value": "much lower than that of the control"},
      {"measurement": "tumor size", "setting": "[2]", "value": "little or no increase in size even at 10 days after tumor induction"},
      {"measurement": "absolute amounts of FAK, Raf1, ERK and AKT enzymes in the cells vs control", "setting": "[3]", "value": "not significantly different"},
      {"measurement": "phosphorylation of AKT", "setting": "[3]; [5]", "value": "greatly reduced as compared to that of the control"},
      {"measurement": "phosphorylation of ERK", "setting": "[3]; [5]", "value": "no increase in phosphorylation until 90 minutes"},
      {"measurement": "phosphorylation of FAK", "setting": "[3]; [5]", "value": "reduced as compared to the control"},
      {"measurement": "phosphorylation of Raf1", "setting": "[3]; [5]", "value": "greatly reduced as compared to that of the control"},
      {"measurement": "growth of tumors derived from melanoma cells", "setting": "[4]", "value": "inhibits the in vivo growth of tumors derived from the melanoma cells"}
    ]}
  ]
}
